Laboratory results published in article PMC4159696.

Experiments:
[1] = biological target: NapD with an N-terminal hexa His-tag (NapD^NHis) (Escherichia coli) (UniProt P0A9I5); test: SAXS; purified NapD^NHis/NapA complex, P12 BioSAXS beamline (PETRA III), 7 °C
[2] = biological target: NapD with an N-terminal hexa His-tag (NapD^NHis) (Escherichia coli) (UniProt P0A9I5); test: AUC; sedimentation equilibrium, 4 °C, about 100 kDa complex (fraction 80 of SEC), 0.5 to 1.0 mg/mL, interference and absorbance optics at 260, 280 and 300 nm

Sequence of UniProt P0A9I5 (P0A9I5 whole entry): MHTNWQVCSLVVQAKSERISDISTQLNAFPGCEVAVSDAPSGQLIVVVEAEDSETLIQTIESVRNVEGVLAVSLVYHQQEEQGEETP

“full-length NapA precursor protein (from UniProt P33937 37-828) (natural protein)” showed a stoichiometry N [1] of 1 and a stoichiometry N [2] of 1.
